{"source": "patent US7211423B2", "about": "“Acetyl CoA carboxylase 2 sequences and methods” (Bristol-Myers Squibb Co., priority 2004, dated 2007)", "test_system": "CC(=O)SCCNC(=O)CCNC(=O)[C@H](O)C(C)(C)COP(=O)(O)OP(=O)(O)OC[C@H]1O[C@@H](n2cnc3c(N)ncnc32)[C@H](O)[C@@H]1OP(=O)(O)O", "assay": "purified protein, by the assay type", "conditions": "other: substrate varied, all other reagents saturating, 37° C., pH 7.5", "data": [{"substance": "recombinant human ACC2 (Homo sapiens; V2141I)", "values": [{"measurement": "Km", "result": 23, "unit": "µM"}]}]}
